Experiments:
[1] = system: hematocrit (HCT); test: Example 22 non-human primate study, hematocrit (HCT); type: in vivo, cynomolgus monkey
Description: (§1) LNP formulations, shown in Table 31 (above), were administered to non-human primates (NHP) (cynomolgus monkey) (n=2) as intravenous injection (IV). The NHP were administered a single modified mRNA IV dose of 0.5 mg/kg, 0.05 mg/kg or 0.005 mg/kg of G-CSF or EPO in a dose volume of 0.5 mL/kg. The NHPs were bled before dosing with the modified mRNA LNP formulations to determine protein expression in the serum and a baseline complete blood count. After administration with the G-CSF modified mRNA formulation the NHP were bled at 8, 24, 48 and 72 hours to determined protein expression. After administration with the EPO modified mRNA formulation the NHP were bled at 8, 24, 48, 72 hours and 7 days to determined protein expression.

[2] = system: aspartate transaminase (AST); test: Example 22 non-human primate study, serum chemistry aspartate transaminase (AST); type: in vivo, cynomolgus monkey
Description: as §1

[3] = system: human G-CSF; test: Example 32B human G-CSF modified RNA lipoplex IM/SC/IV, serum human G-CSF ELISA; type: in vivo, C57/BL6 mice; details: I.M., 100 μg, lipoplexed with 30% RNAIMAX, serum 6 hours
Description: 6 hours after administration of a formulation, serum was collected from each mouse to measure the amount of human G-CSF protein in the mouse serum by human G-CSF ELISA and the results are shown in Table 54.

[4] = system: human G-CSF; test: Example 42A saline formulation IM, serum human G-CSF; type: in vivo, mice; details: G-CSF group: human G-CSF in mouse serum, IM 100 ug, 13 hours
Description: The mice were bled at 13 hours after the injection to determine the concentration of the human polypeptide in serum in pg/mL (G-CSF groups measured human G-CSF in mouse serum and EPO groups measured human EPO in mouse serum).

[5] = system: IFN-alpha; test: Example 45 cytokine study in PBMC, IFN-alpha ELISA; type: cell-based, human; details: human PBMC, Lipofectamine 2000
Description: The plates were then incubated at 37 C.
Each condition was done in duplicate.
Shown in Tables 69 and 70 are the average from 2 separate PBMC donors of the G-CSF and IFN-alpha production over time as measured by specific ELISA.

[6] = Female NHP, 0.5 mg/kg, Pre-dose
[7] = Male NHP, 0.005 mg/kg, Pre-dose

B1: G-CSF: human G-CSF mRNA SEQ ID NO: 6, polyA ~160 nt, Cap1, fully modified with 5-methylcytosine and pseudouridine (nucleic acid, listed as Homo sapiens)
chain: GGGAAAUAAGAGAGAAAAGAAGAGUAAGAAGAAAUAUAAGAGCCACCAUGGCCGGUCCCGCGACCCAAAGCCCCAUGAAACUUAUGGCCCUGCAGUUGCUGCUUUGGCACUCGGCCCUCUGGACAGUCCAAGAAGCGACUCCUCUCGGACCUGCCUCAUCGUUGCCGCAGUCAUUCCUUUUGAAGUGUCUGGAGCAGGUGCGAAAGAUUCAGGGCGAUGGAGCCGCACUCCAAGAGAAGCUCUGCGCGACAUACAAACUUUGCCAUCCCGAGGAGCUCGUACUGCUCGGGCACAGCUUGGGGAUUCCCUGGGCUCCUCUCUCGUCCUGUCCGUCGCAGGCUUUGCAGUUGGCAGGGUGCCUUUCCCAGCUCCACUCCGGUUUGUUCUUGUAUCAGGGACUGCUGCAAGCCCUUGAGGGAAUCUCGCCAGAAUUGGGCCCGACGCUGGACACGUUGCAGCUCGACGUGGCGGAUUUCGCAACAACCAUCUGGCAGCAGAUGGAGGAACUGGGGAUGGCACCCGCGCUGCAGCCCACGCAGGGGGCAAUGCCGGCCUUUGCGUCCGCGUUUCAGCGCAGGGCGGGUGGAGUCCUCGUAGCGAGCCACCUUCAAUCAUUUUUGGAAGUCUCGUACCGGGUGCUGAGACAUCUUGCGCAGCCGUGAAGCGCUGCCUUCUGCGGGGCUUGCCUUCUGGCCAUGCCCUUCUUCUCUCCCUUGCACCUGUACCUCUUGGUCUUUGAAUAAAGCCUGAGUAGGAAG
modifications: polyA ~160, Cap1, 5mC/pseudouridine modified
With B1 the HCT ([1]; Female NHP, 0.5 mg/kg, 3 days) was 0.38 L/L, the HCT ([1]; Female NHP, 0.5 mg/kg, 7 days) was 0.38 L/L and the HCT [1, 6] was 0.43 L/L. It also gave an HCT ([1]; Male NHP, 0.005 mg/kg, 14/18 days) of 0.41 L/L, an HCT ([1]; Male NHP, 0.005 mg/kg, 24 hours) of 0.4 L/L and an HCT ([1]; Male NHP, 0.005 mg/kg, 3 days) of 0.4 L/L. It also gave an HCT ([1]; Male NHP, 0.005 mg/kg, 7 days) of 0.39 L/L, an HCT [1, 7] of 0.42 L/L and an HCT ([1]; Male NHP, 0.05 mg/kg, 14/18 days) of 0.44 L/L. It also gave an HCT ([1]; Male NHP, 0.05 mg/kg, 24 hours) of 0.39 L/L, an HCT ([1]; Male NHP, 0.05 mg/kg, 3 days) of 0.41 L/L and an HCT ([1]; Male NHP, 0.05 mg/kg, 7 days) of 0.42 L/L. It also gave an HCT ([1]; Male NHP, 0.05 mg/kg, Pre-dose) of 0.44 L/L, an HCT ([1]; Male NHP, 0.5 mg/kg, 14/18 days) of 0.34 L/L and an HCT ([1]; Male NHP, 0.5 mg/kg, 24 hours) of 0.37 L/L. The HCT ([1]; Male NHP, 0.5 mg/kg, 3 days) was 0.39 L/L, the HCT ([1]; Male NHP, 0.5 mg/kg, 7 days) was 0.39 L/L and the HCT ([1]; Male NHP, 0.5 mg/kg, Pre-dose) was 0.46 L/L. It also gave an AST ([2]; Female NHP, 0.005 mg/kg, 2 days) of 34 U/L, an AST ([2]; Female NHP, 0.005 mg/kg, 4 days) of 36 U/L and an AST ([2]; Female NHP, 0.005 mg/kg, 7 days) of 31 U/L. For the same molecule, the AST ([2]; Female NHP, 0.005 mg/kg, 14 days) was 20 U/L, the AST ([2]; Female NHP, 0.005 mg/kg, Pre-dose) was 54 U/L and the AST ([2]; Female NHP, 0.05 mg/kg, 2 days) was 34 U/L. It also gave an AST ([2]; Female NHP, 0.05 mg/kg, 4 days) of 42 U/L, an AST ([2]; Female NHP, 0.05 mg/kg, 7 days) of 52 U/L and an AST ([2]; Female NHP, 0.05 mg/kg, 14 days) of 20 U/L. For the same molecule, the AST ([2]; Female NHP, 0.05 mg/kg, Pre-dose) was 33 U/L, the AST ([2]; Female NHP, 0.5 mg/kg, 2 days) was 294 U/L and the AST ([2]; Female NHP, 0.5 mg/kg, 4 days) was 63 U/L. It also gave an AST ([2]; Female NHP, 0.5 mg/kg, 7 days) of 68 U/L, an AST ([2]; Female NHP, 0.5 mg/kg, 14 days) of 67 U/L and an AST [2, 6] of 47 U/L. For the same molecule, the AST ([2]; Male NHP, 0.005 mg/kg, 2 days) was 70 U/L, the AST ([2]; Male NHP, 0.005 mg/kg, 4 days) was 39 U/L and the AST ([2]; Male NHP, 0.005 mg/kg, 7 days) was 28 U/L. For the same molecule, the AST ([2]; Male NHP, 0.005 mg/kg, 14 days) was 39 U/L, the AST [2, 7] was 35 U/L and the AST ([2]; Male NHP, 0.05 mg/kg, 2 days) was 95 U/L. The AST ([2]; Male NHP, 0.05 mg/kg, 4 days) was 69 U/L, the AST ([2]; Male NHP, 0.05 mg/kg, 7 days) was 62 U/L and the AST ([2]; Male NHP, 0.05 mg/kg, 14 days) was 59 U/L. It also gave an AST ([2]; Male NHP, 0.05 mg/kg, Pre-dose) of 99 U/L, an AST ([2]; Male NHP, 0.5 mg/kg, 2 days) of 196 U/L and an AST ([2]; Male NHP, 0.5 mg/kg, 4 days) of 67 U/L. For the same molecule, the AST ([2]; Male NHP, 0.5 mg/kg, 7 days) was 53 U/L, the AST ([2]; Male NHP, 0.5 mg/kg, 14 days) was 47 U/L and the AST ([2]; Male NHP, 0.5 mg/kg, Pre-dose) was 32 U/L. For the same molecule, the G-CSF [3] was 85.6 pg/mL, the “Average Protein Product” value [4] was 19.8 Pg/mL, serum and the “innate immune recognition, cytokine production (IFN-alpha and others)” value [5] was “induced IFN-alpha, TNF-alpha and IP10”.

From patent publication US20160193299A1, “MODIFIED NUCLEOSIDE, NUCLEOTIDE, AND NUCLEIC ACID COMPOSITIONS” (Moderna Therapeutics, Inc., priority 2011, published 2016)
